In PMC5190049, “Immunogenicity of mammary tumor cells can be induced by shikonin via direct binding-interference with hnRNPA1” (Oncotarget, 2016):
Each block holds one molecule with its values, some of them ahead of it.

What was measured:
hnRNPA1 (UP1) = target: T1, hnRNPA1 (UP1) (Homo sapiens, UniProt P09651); assay: isothermal titration calorimetry; format: binding
T1 construct: UP1, first 196 amino acids (N-terminal fragment with both RRMs); pET-42a, GST-His tag cut by Factor Xa; E. coli BL21(DE3)

[1] = target: T2, hnRNPA1 N-terminal fragment (UP1) (human, UniProt P09651 1-196); assay: EMSA; shikonin 0-4 ug/test; EMSA: 20 mM HEPES, 50 mM KCl, 1 mM EDTA, 5 mM MgCl2, 0.1 mg/ml tRNA, 0.1 mg/ml BSA, 5 mM DTT, 10% glycerol, room temperature; ITC: 300 mM NaCl, 50 mM Tris-HCl; conditions: protein: recombinant; tags: GST-His fusion tag removed with Factor Xa; label: 5'-biotin
[2] = target: T2, hnRNPA1 N-terminal fragment (UP1); assay: EMSA; without shikonin; shikonin 0-4 ug/test disrupts binding dose-dependently; EMSA: 20 mM HEPES, 50 mM KCl, 1 mM EDTA, 5 mM MgCl2, 0.1 mg/ml tRNA, 0.1 mg/ml BSA, 5 mM DTT, 10% glycerol, room temperature; ITC: 300 mM NaCl, 50 mM Tris-HCl; conditions: protein: recombinant; tags: GST-His fusion tag removed with Factor Xa; label: 5'-biotin
[3] = target: T2, hnRNPA1 N-terminal fragment (UP1); assay: ITC; N = 1.17 +/- 0.128; pH 7.0; 3 uM UP1, 60 uM RNA; Kd not given in text; EMSA: 20 mM HEPES, 50 mM KCl, 1 mM EDTA, 5 mM MgCl2, 0.1 mg/ml tRNA, 0.1 mg/ml BSA, 5 mM DTT, 10% glycerol, room temperature; ITC: 300 mM NaCl, 50 mM Tris-HCl; conditions: protein: recombinant; tags: GST-His fusion tag removed with Factor Xa
[4] = target: T2, hnRNPA1 N-terminal fragment (UP1); assay: EMSA; without shikonin; shikonin 0-4 ug/test disrupts binding; EMSA: 20 mM HEPES, 50 mM KCl, 1 mM EDTA, 5 mM MgCl2, 0.1 mg/ml tRNA, 0.1 mg/ml BSA, 5 mM DTT, 10% glycerol, room temperature; ITC: 300 mM NaCl, 50 mM Tris-HCl; conditions: protein: recombinant; tags: GST-His fusion tag removed with Factor Xa; label: 5'-biotin

T2 sequence (P09651 1-196): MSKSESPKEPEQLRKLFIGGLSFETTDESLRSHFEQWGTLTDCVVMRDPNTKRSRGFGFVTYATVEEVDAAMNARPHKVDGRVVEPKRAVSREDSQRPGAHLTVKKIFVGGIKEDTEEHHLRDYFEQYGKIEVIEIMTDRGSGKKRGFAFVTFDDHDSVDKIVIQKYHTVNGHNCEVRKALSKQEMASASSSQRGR
T1 sequence (P09651 1-196): as above

Kd (hnRNPA1 (UP1)): 71.2 µM
Molecule: CC(C)=CC[C@@H](O)C1=CC(=O)c2c(O)ccc(O)c2C1=O [shikonin]

Molecule: AUUUCGGGAUUUCGGGAAUG (ssRNA) [M3 RNA (called M2 in Figure 2c legend)]
binding result [1]: no binding

Molecule: TTAGGGTTAGCG (ssDNA) [TR2]
binding result [2]: binds

Molecule: AUUUAGGGAUUUAGGGAAUG (ssRNA) [WT RNA (ITC)]
binding result [3]: binds

Molecule: AUUUAGGGAUUUAGGGAAUG (ssRNA) [WT RNA]
binding result [4]: binds
